Broadly, the Km is the concentration of substrate that gives half-maximal velocity. For orientation: kcat means the maximal rate divided by the concentration of active sites. In general, kcat/Km refers to the second-order rate constant that governs catalysis at low substrate concentration.

The target of one data set is T1, NADPH-CytP450R (Homo sapiens, UniProt P16435).
T1 construct: gene POR; soluble catalytic domain, C-terminal 614 residues (VRESSFV through SLDVWS), N-terminal His6 tag (pET15b), E. coli BL21(DE3), about 70 kDa
T1 sequence (P16435 64-677): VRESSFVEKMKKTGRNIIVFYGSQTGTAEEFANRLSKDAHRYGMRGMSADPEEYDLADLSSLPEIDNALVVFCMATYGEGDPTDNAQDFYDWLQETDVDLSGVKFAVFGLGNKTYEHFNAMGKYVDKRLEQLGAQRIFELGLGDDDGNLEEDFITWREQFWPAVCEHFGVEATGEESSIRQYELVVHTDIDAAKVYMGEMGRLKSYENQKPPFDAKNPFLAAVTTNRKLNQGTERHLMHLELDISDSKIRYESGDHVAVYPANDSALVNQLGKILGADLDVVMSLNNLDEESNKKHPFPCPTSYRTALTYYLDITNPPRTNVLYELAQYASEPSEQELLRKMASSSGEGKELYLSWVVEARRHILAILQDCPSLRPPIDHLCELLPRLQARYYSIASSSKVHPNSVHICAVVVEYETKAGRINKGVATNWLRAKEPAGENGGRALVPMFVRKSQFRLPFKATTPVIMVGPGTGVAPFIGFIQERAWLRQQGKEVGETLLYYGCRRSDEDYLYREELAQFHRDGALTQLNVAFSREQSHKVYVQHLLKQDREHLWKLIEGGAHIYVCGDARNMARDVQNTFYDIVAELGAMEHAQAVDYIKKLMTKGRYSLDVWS
The experiment in a line: absorption shift of Cytb5 on reduction ([…] to […] nm). The class given is biochemical. To be noted: pH 7.5, 25 °C; 100 mM Hepes, 150 mM NaCl, 0.25 µM CytP450R, 5 µM human Cytb5, 5 µM NADPH.

Substrate in data set [1]: CCCCC/C=C\C/C=C\CCCCCCCC(=O)SCCNC(=O)CCNC(=O)[C@H](O)C(C)(C)COP(=O)(O)OP(=O)(O)OC[C@H]1O[C@@H](n2cnc3c(N)ncnc32)[C@H](O)[C@@H]1OP(=O)(O)O
Description: purified protein. In kind it is biochemical, Mortierella alpina. To be noted: pH 7.5, 28 °C, 25 mM Hepes, 150 mM NaCl, 1 µM NADPH, 100 nM desaturase, 0.5 µM human Cytb5, 1 µM human CytP450R, 0.002% Fos-16.

Substrate in data set [2]: CCCCC/C=C\C/C=C\C/C=C\CCCCC(=O)SCCNC(=O)CCNC(=O)[C@H](O)C(C)(C)COP(=O)(O)OP(=O)(O)OC[C@H]1O[C@@H](n2cnc3c(N)ncnc32)[C@H](O)[C@@H]1OP(=O)(O)O
The experiment in a line: purified protein. The class given is biochemical, Mortierella alpina. The conditions noted are these: pH 7.5, 28 °C, 25 mM Hepes, 150 mM NaCl, 1 µM NADPH, 100 nM desaturase, 0.5 µM human Cytb5, 1 µM human CytP450R, 0.002% Fos-16.

Substrate in data set [3]: CCCCC/C=C\C/C=C\C/C=C\C/C=C\CCCC(=O)SCCNC(=O)CCNC(=O)[C@H](O)C(C)(C)COP(=O)(O)OP(=O)(O)OC[C@H]1O[C@@H](n2cnc3c(N)ncnc32)[C@H](O)[C@@H]1OP(=O)(O)O
Description: purified protein. The class given is biochemical, Mortierella alpina. The conditions noted are these: pH 7.5, 28 °C, 25 mM Hepes, 150 mM NaCl, 1 µM NADPH, 100 nM desaturase, 0.5 µM human Cytb5, 1 µM human CytP450R, 0.002% Fos-16.

Substrate in data set [4]: CCCCCC/C=C\CCCCCCCC(=O)SCCNC(=O)CCNC(=O)[C@H](O)C(C)(C)COP(=O)(O)OP(=O)(O)OC[C@H]1O[C@@H](n2cnc3c(N)ncnc32)[C@H](O)[C@@H]1OP(=O)(O)O
Description: purified protein. In kind it is biochemical, Mortierella alpina. To be noted: pH 7.5, 28 °C, 25 mM Hepes, 150 mM NaCl, 1 µM NADPH, 100 nM desaturase, 0.5 µM human Cytb5, 1 µM human CytP450R, 0.002% Fos-16.

Substrate in data set [5]: CCCCCCCC/C=C\CCCCCCCC(=O)SCCNC(=O)CCNC(=O)[C@H](O)C(C)(C)COP(=O)(O)OP(=O)(O)OC[C@H]1O[C@@H](n2cnc3c(N)ncnc32)[C@H](O)[C@@H]1OP(=O)(O)O
Description: purified protein. To be noted: pH 7.5, 28 °C, 25 mM Hepes, 150 mM NaCl, 1 µM NADPH, 100 nM desaturase, 0.5 µM human Cytb5, 1 µM human CytP450R, 0.002% Fos-16. In kind it is biochemical, Mortierella alpina.

With `NC(=O)C1=CN([C@@H]2O[C@H](COP(=O)(O)OP(=O)(O)OC[C@H]3O[C@@H](n4cnc5c(N)ncnc54)[C@H](OP(=O)(O)O)[C@@H]3O)[C@@H](O)[C@H]2O)C=CC1` [NADPH], the “absorption shift of Cytb5 on reduction (412 to 422, 521, 554 nm)” value on NADPH-CytP450R is on record as “when NADPH was added, Cytb5 was instantly reduced”.

B1: M. alpina ω3 desaturase (Mortierella alpina) (protein)
chain: MAPPHVVDEQVRRRIVVEDEIKSKKQFERNYVPMDFTIKEIRDAIPAHLFIRDTTKSILHVVKDLVTIAIVFYCATFIETLPSLALRVPAWITYWIIQGTVMVGPWILAHECGHGAFSDSKTINTIFGWVLHSALLVPYQAWAMSHSKHHKGTGSMTKDVVFIPATRSYKGLPALEKPAVEEEVSEQEHHHHEESIFAETPIYTLGALLFVLTFGWPLYLIVNFSGHEAPHWVNHFQTVAPLYEPHQRKNIFYSNCGIVAMGSILTYLSMVFSPLTVFMYYGIPYLGVNAWIVCITYLQHTDPKVPHFRDNEWNFQRGAACTIDRSFGTIVNHLHHHIGDSHQCHHMFSQMPFYNAVEATKYLKAKLGKYYIFDDTPIAKALYRNWRECKFVEDEGDVVFYKH
notes: membrane desaturase expressed in Pichia pastoris (pPink-HC) with 3C site, ZZ-tag and RGS-His10-tag; tags cut off by rhinovirus 3C protease; Fos-Choline-16 solubilized, IgG Sepharose and size exclusion purified
As to B1, in the data set “purified protein [1]”, the Michaelis constant (Km) is 16.0 ± 2.2 µM, the kcat came to 0.11 ± 0.01 s⁻¹ and the specificity constant (kcat/Km) came out at 6830 M⁻¹ s⁻¹. In “purified protein [2]”, the Km turned out to be 87.8 ± 9.9 µM, the catalytic constant (kcat) came to 0.168 ± 0.00667 s⁻¹ and the kcat/Km is 2000 M⁻¹ s⁻¹. Further, in the data set “purified protein [3]”, the Michaelis constant (Km) came to 157.0 ± 23.8 µM, the catalytic constant (kcat) turned out to be 0.0233 ± 0.00167 s⁻¹ and the kcat/Km stood at 167 M⁻¹ s⁻¹.

B2: M. alpina ω6 desaturase (Mortierella alpina) (protein)
chain: MAPPNTIDAGLTQRHISTSAAPTSAKPAFERNYQLPEFTIKEIRECIPAHCFERSGLRGLCHVAIDLTWASLLFLAATQIDKFENPLIRYLAWPAYWIMQGIVCTGIWVLAHECGHQSFSTSKTLNNTVGWILHSMLLVPYHSWRISHSKHHKATGHMTKDQVFVPKTRSQVGLPPKENAAAAVQEEDMSVHLDEEAPIVTLFWMVIQFLFGWPAYLIMNASGQDYGRWTSHFHTYSPIFEPRNFFDIIISDLGVLAALGALIYASMQLSLLTVTKYYIVPYLFVNFWLVLITFLQHTDPKLPHYREGAWNFQRGALCTVDRSFGKFLDHMFHGIVHTHVAHHLFSQMPFYHAEEATYHLKKLLGEYYVYDPSPIVVAVWRSFRECRFVEDHGDVVFFKK
notes: as for B1
For the molecule B2, in “purified protein [4]”, the Km turned out to be 3.9 ± 0.9 µM, the turnover number (kcat) worked out at 0.00333 ± 0.000167 s⁻¹ and the catalytic efficiency (kcat/Km) turned out to be 667 M⁻¹ s⁻¹. For the same molecule, in “purified protein [5]”, the Km came to 5.4 ± 0.8 µM, the kcat worked out at 0.00833 ± 0.000333 s⁻¹ and the kcat/Km is 1500 M⁻¹ s⁻¹.
